Assay results reported in PMC6427009 (Scientific Reports, 2019).

Target: Hemagglutinin of Influenza A/California/07/2009 (H1N1) (Influenza A/California/07/2009 (H1N1), UniProt C3W5X2, fully glycosylated (7 glycosylation sites))
Test: HDX-MS
Conditions: both partners purified

B1: llama single-domain antibody SD38 (VHH)
VHH: EVQLVESGGGLVQPGGSLRLSCAVSISIFDIYAMDWYRQAPGKQRDLVATSFRDGSTNYADSVKGRFTISRDNAKNTLYLQMNSLKPEDTAVYLCHVSLYRDPLGVAGGMGVYWGKGALVTVSS
notes: also called Llama single domain SD38
  binding result: binds
